Laboratory results: publication PMC6302015

Tests used:
[1] = biological target: Dopamine receptor D2 (D2R) peptide (N430-R443); test: ITC; MicroCal VP-ITC; 50 μM D2R peptide in the cell titrated with NCS-1; 25°C; 20 mM Tris-HCl pH 8.0, 150 mM NaCl, 5 mM CaCl2 and 100 μM ZnCl2; one set of sites model
[2] = biological target: Dopamine receptor D2 (D2R) peptide (N430-R443); test: ITC; MicroCal VP-ITC; 50 μM D2R peptide in the cell titrated with NCS-1 (1 mM stock, thirty 10 μl injections); 25°C; 20 mM Tris-HCl pH 8.0, 150 mM NaCl, 5 mM CaCl2; one set of sites model
[3] = biological target: GST-tagged N-terminal fragment of GRK1 (M1-G183) (UniProt P28327); test: pull-down; 50 μg GST-N-GRK1 immobilised on Glutathione Sepharose; 25 μM NCS-1 applied; 20 mM Tris pH 8.0, 150 mM NaCl, 1 mM DTT, 1 mM CaCl2 and 0-100 μM ZnCl2; 1 h at 4°C; bound NCS-1 detected by western blotting
Chain of UniProt P28327 (P28327 1-183): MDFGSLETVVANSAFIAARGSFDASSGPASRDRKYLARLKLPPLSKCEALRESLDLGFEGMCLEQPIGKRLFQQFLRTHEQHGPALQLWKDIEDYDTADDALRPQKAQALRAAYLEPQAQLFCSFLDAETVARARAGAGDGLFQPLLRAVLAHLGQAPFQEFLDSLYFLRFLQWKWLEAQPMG

Ka [1]: 118000 M⁻¹
Kd [1]: 8.47 µM
dH [1]: -3.2 kcal/M
stoichiometry N [1]: 0.508
Ka [2]: 33200 M⁻¹
Kd [2]: 30.1 µM
dH [2]: -3 kcal/M
stoichiometry N [2]: 0.676
fold change of binding with 25 μM Zn^2+ against no Zn^2+ [3]: 2 fold
Substance: Neuronal calcium sensor-1 (recombinant myristoylated NCS-1) (from UniProt P62166 1-190) (natural protein)
